Earlier results in patent publication US20230332104A1, “ZBTB32 INHIBITORS AND USES THEREOF” (NOVARTIS AG, priority 2020, published 2023).

System: rodent and cynomolgus monkey TGF-β

B1: XOMA 089: fully human monoclonal antibody that specifically binds and neutralizes TGF-beta 1 and 2 ligands (antibody, V domains shown)
VH: QVQLVQSGAEVKKPGSSVKVSCKASGGTFSSYAISWVRQAPGQGLEWMGGIIPIFGTANYAQKFQGRVTITADESTSTAYMELSSLRSEDTAVYYCARGLWEVRALPSVYWGQGTLVTVSS
VL: SYELTQPPSVSVAPGQTARITCGANDIGSKSVHWYQQKAGQAPVLVVSEDIIRPSGIPERISGSNSGNTATLTISRVEAGDEADYYCQVWDRDSDQYVFGTGTKVTVLG
- cross-reactivity with rodent and cynomolgus monkey TGF-β: cross-reacts
